The values below come from paper PMC12690290.

Experiment [1] concerns the target Low-density lipoprotein receptor 1 (low-density lipoprotein-related protein 1) (human (endogenous in HepG2 and primary human hepatocytes)) (UniProt Q07954). The experiment is described as follows: affinity purification with mass spectrometry; as a6, RAP (500 nM) added as competitor to human hepatocyte extract and heme–HPX Affi-Gel 15; amount of receptor isolated.
The next experiment addresses LRP1 (Homo sapiens) (UniProt Q07954). Put plainly: surface plasmon resonance. The following applies: cited from earlier work.

With “RAP (receptor associated protein) added at 500 nM (from UniProt P30533 35-357) (natural protein)”, the percent decrease of LRP1 isolated on proto-heme–human HPX Affi-Gel 15 with 500 nM RAP in experiment [1] was found to be 50%.
On to hemopexin (from UniProt P02790), for which the equilibrium dissociation constant (Kd) with LRP1 (Homo sapiens) is 4 nM.
